According to US10253076B2, “Peptides and combination of peptides for use in immunotherapy against ovarian cancer and other cancers” (immatics biotechnologies GmbH, priority 2015, dated 2019):

What follows are substances tested against HLA-A*02:01 (Homo sapiens, UniProt P04439, D140Y/D185E/D98H/E176V/E277Q/G131W/G231S/I119V/I121R/I166T/I218V/L300P/L318F/N151K/N90K/P208A/P217A/Q86G/Q94H/R138H/R169H/T345S) (assay: MHC binding assay (UV-ligand exchange, beta2m ELISA, peptide exchange yield)). Details: binding of HLA-class I restricted peptides to HLA-A*02:01, ranged by peptide exchange yield (UV-ligand exchange, β2m ELISA).
From the text: Candidate peptides for T cell based therapies according to the present invention were further tested for their MHC binding capacity (affinity). The individual peptide-MHC complexes were produced by UV-ligand exchange, where a UV-sensitive peptide is cleaved upon UV-irradiation, and exchanged with the peptide of interest as analyzed. Only peptide candidates that can effectively bind and stabilize the peptide-receptive MHC molecules prevent dissociation of the MHC complexes. To determine the yield of the exchange reaction, an ELISA was performed based on the detection of the light chain (β2m) of stabilized MHC complexes. The assay was performed as generally described in Rodenko et al. (Rodenko et al., 2006).
96 well MAXISorp plates (NUNC) were coated over night with 2ug/ml streptavidin in PBS at room temperature, washed 4× and blocked for 1 h at 37° C. in 2% BSA containing blocking buffer. […] Peptide-MHC monomers of the UV-exchange reaction were diluted 100 fold in blocking buffer. Samples were incubated for 1 h at 37° C., washed four times, incubated with 2ug/ml HRP conjugated anti-82m for 1 h at 37° C., washed again and detected with TMB solution that is stopped with […]. Absorption was measured at 450 nm. Candidate peptides that show a high exchange yield (preferably higher than 50%, most preferred higher than 75%) are generally preferred for a generation and production of antibodies or fragments thereof, and/or T cell receptors or fragments thereof, as they show sufficient avidity to the MHC molecules and prevent dissociation of the MHC complexes.

Row | Substance | Peptide exchange
1 | 316 (ILLERLWYV; listed as Homo sapiens) [compound 316] | ″+++″ (≥50% = +++)
2 | 314 (ALIAEGIALV; listed as Homo sapiens) [compound 314] | ″+++″ (≥50% = +++)
3 | 28 (QLLDETSAITL; listed as Homo sapiens) [compound 28] | ″+++″ (≥50% = +++)
4 | 27 (ILADIVISA; listed as Homo sapiens) [compound 27] | ″+++″ (≥50% = +++)
5 | 439 (YLLQEIYGI; listed as Homo sapiens) [compound 439] | ″+++″ (≥50% = +++)
6 | 40 (TLLVKVFSV; listed as Homo sapiens) [compound 40] | ″+++″ (≥50% = +++)
7 | 606 (ALWETEVYI; listed as Homo sapiens) [compound 606] | ″+++″ (≥50% = +++)
8 | 503 (SLNHFTHSV; listed as Homo sapiens) [compound 503] | ″+++″ (≥50% = +++)
9 | 500 (SLMEDQVLQL; listed as Homo sapiens) [compound 500] | ″+++″ (≥50% = +++)
10 | 162 (YQQAQVPSV; listed as Homo sapiens) [compound 162] | ″+++″ (≥50% = +++)
11 | 198 (KTINKVPTV; listed as Homo sapiens) [compound 198] | ″+++″ (≥50% = +++)
12 | 207 (GLTSTNAEV; listed as Homo sapiens) [compound 207] | ″++″ (≥20% = ++)
13 | 623 (YLVEDIQHI; listed as Homo sapiens) [compound 623] | ″+++″ (≥50% = +++)
14 | 328 (ALNDQVFEI; listed as Homo sapiens) [compound 328] | ″+++″ (≥50% = +++)
15 | 462 (KLAKQPETV; listed as Homo sapiens) [compound 462] | ″+++″ (≥50% = +++)
16 | 116 (YHIDEEVGF; listed as Homo sapiens) [compound 116] | ″+″ (≥10% = +)
17 | 87 (ALPEAPAPLLPHIT; listed as Homo sapiens) [compound 87] | ″++″ (≥20% = ++)

The next lines start with the values.

Row | Peptide exchange | Substance
18 | ″++″ (≥20% = ++) | 127 (KIGDEPPKV; listed as Homo sapiens) [compound 127]
19 | ″+++″ (≥50% = +++) | 183 (FGLDLVTEL; listed as Homo sapiens) [compound 183]
20 | ″+++″ (≥50% = +++) | 129 (GLLDGGVDILL; listed as Homo sapiens) [compound 129]
21 | ″+++″ (≥50% = +++) | 488 (FLAEDPKVTL; listed as Homo sapiens) [compound 488]
22 | ″++++″ (≥75% = ++++) | 620 (KLLNKIYEA; listed as Homo sapiens) [compound 620]
23 | ″+++″ (≥50% = +++) | 437 (SMAPGLVIQAV; listed as Homo sapiens) [compound 437]
24 | ″+++″ (≥50% = +++) | 214 (FLLDLDPLLL; listed as Homo sapiens) [compound 214]
25 | ″+++″ (≥50% = +++) | 125 (VQIHQVAQV; listed as Homo sapiens) [compound 125]
26 | ″+++″ (≥50% = +++) | 486 (AVMESIQGV; listed as Homo sapiens) [compound 486]
27 | ″++++″ (≥75% = ++++) | 4 (GIMEHITKI; listed as Homo sapiens) [compound 4]
28 | ″++″ (≥20% = ++) | 392 (ALLHPQGFEV; listed as Homo sapiens) [compound 392]
29 | ″+++″ (≥50% = +++) | 614 (LLLPDQPPYHL; listed as Homo sapiens) [compound 614]
30 | ″+++″ (≥50% = +++) | 306 (ALVNVQIPL; listed as Homo sapiens) [compound 306]
31 | ″+++″ (≥50% = +++) | 498 (KLWTGGLDNTV; listed as Homo sapiens) [compound 498]
32 | ″+++″ (≥50% = +++) | 208 (KISPVTFSV; listed as Homo sapiens) [compound 208]
